Data as given in the supplement of paper PMC12764529.
± gives the half width of the 95% confidence interval.

Key:
[1] = folding stability dG unfold from trypsin proteolysis; higher = more stable
Outline: (§1)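 K50 was inferred by Bayesian fitting of sequencing counts obtained after protease digestion of designed mini-proteins. Unfolding free energy was derived by comparison with a sequence-predicted unfolded-state K50 and a shared folded-state K50, for each protease or both combined. The mini-proteins were under 80 residues, had no cysteine, were carried in a PA-tagged cDNA display construct, and were kept only if AlphaFold2 dimer inter-PAE exceeded 15.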

[2] = folding stability dG unfold from chymotrypsin proteolysis; higher = more stable
Outline: as §1

[3] = folding stability dG unfold (combined trypsin and chymotrypsin); higher = more stable
Outline: as §1

Row | Sequence | folding stability dG unfold [1] [kcal/mol] | folding stability dG unfold [2] [kcal/mol] | folding stability dG unfold [3] [kcal/mol]
1 | SAGGSAGGKLKKFKIKEIKIEKNKETNTYTVTITLENGEKLTITAKSKEDAEKALRKLKEAGLLSAGGSAGG [r6_65_TrROS_Hall] | 2.81 ± 0.086 | 3.39 ± 0.098 | 3.02 ± 0.2
2 | SAGGSAGGKLSIPIHIPGLTPEEARKIVKYFAAAGIPPDNVTIEVQPVPPVPPMTPEEMEKHNKSAGGSAGG [r6_246_TrROS] | -0.288 ± 0.24 | 0.988 ± 0.13 | 0.614 ± 0.2
3 | SAGGSAGGKPEVKITLVIEVETEEELKALAEELAALLGAEVEVRVERREDGRLLVTVTITVPAESAGGSAGG [r6_719_TrROS_Hall] | 3.28 ± 0.14 | 2.77 ± 0.12 | 2.97 ± 0.096
4 | SAGGSAGGKPKIIEEKELEFTRKDGKKVKIKLVKNEDGKVFAFNKDTGKVITLPLDELKALLKSSAGGSAGG [r6_579_TrROS_Hall] | 1.87 ± 0.052 | 2.37 ± 0.024 | 2.27 ± 0.054
5 | SAGGSAGGKPKMTFPITDIYPPPGGGNVFIRIQSDDKPREFPFPNLENLEIEKDPEDGTVKIKWSAGGSAGG [r6_806_TrROS] | 0.129 ± 0.36 | 0.307 ± 0.39 | -0.0766 ± 0.31
6 | SAGGSAGGKSYVRLEVYRRNPETDEWEKIRTEVLETDAASGEEVRRRALERVPEDYLVKVELFPSAGGSAGG [r6_623_TrMRF] | 2.01 ± 0.046 | 2.872 ± 0.028 | 2.62 ± 0.062
7 | SAGGSAGGKTIEITIKLEDGKELKIKIDSPEELDKITSVELIGPGKIKITVNGKTIEITIKPKPSAGGSAGG [r6_206_TrROS_Hall] | 3.45 ± 0.14 | 2.77 ± 0.072 | 3.2 ± 0.16
8 | SAGGSAGGKVRVITVKPGETITVEGLPPGAVLITLPDGSVKEFPAGATIKVPPSAEIVVVEKEDSAGGSAGG [r6_866_TrROS_Hall] | 0.486 ± 0.022 | 0.885 ± 0.04 | 0.778 ± 0.1
9 | SAGGSAGGKYEIVEVEEKEVNGEKYLIFKVKNENGEELLITVSKEDAEKILASLPPGATVEILPSAGGSAGG [r6_111_TrROS_Hall] | 3.49 ± 0.56 | 3.76 ± 0.14 | 3.84 ± 0.25
10 | SAGGSAGGLEEELKLAKENPGEFEGVTVKLESVIEVTTTDPTTGKPTTKLVRVESEITFPPGLKSAGGSAGG [r6_560_JUSTAS] | 0.2 ± 0.13 | 1.05 ± 0.1 | 0.834 ± 0.2
11 | SAGGSAGGLPPGQSIEIFIFSMFPTPNGNLNLEMIQITIRIRPVVRKPDNGGEKYVPPDDPDLASAGGSAGG [r6_405_TrROS] | 2.87 ± 0.11 | 4.36 ± 0.22 | 3.97 ± 0.16
12 | SAGGSAGGLRVVKPEKVVEAIRKIRELVPKNYLVIVDSIEVREEGGKLYVDIPVLVLPVPPELLSAGGSAGG [r6_819_TrMRF] | 1.54 ± 0.027 | 1.79 ± 0.072 | 1.65 ± 0.16
13 | SAGGSAGGMEVVELTVDELRALLPPGAVLLVYNRKTRKLYEIPVEELEALLKPGDKVRVVVLPPSAGGSAGG [r6_893_TrROS_Hall] | 3.62 ± 0.17 | 4.39 ± 0.074 | 4.17 ± 0.25
14 | SAGGSAGGMFIALVTITLPNGEKITDLAFFESPEKIYVLNLKDGKWSEPKVEDIKVVPLEELLFSAGGSAGG [r6_558_TrMRF] | 1.92 ± 0.12 | 2.73 ± 0.069 | 2.41 ± 0.18
15 | SAGGSAGGMIIRITTKNGKTLEIKAKSLEEAKAAIAEKLGLSKENIKPEDITKVEIYSEEELKESAGGSAGG [r6_586_TrROS_Hall] | 2.95 ± 0.17 | 3.28 ± 0.15 | 3.12 ± 0.16
16 | SAGGSAGGMIKITITVPPGVSPEFVREKIAPLGVEVLSVEPLPDGTHRVTIEIPPEITKNPELLSAGGSAGG [r6_470_JUSTAS] | 1.68 ± 0.051 | 1.18 ± 0.023 | 1.42 ± 0.044
17 | SAGGSAGGMIREIEVKVSPEFPSVEEVVEELKAKGYEVKRIEEDPETDEVIVYVVKKVPEEEHHSAGGSAGG [r6_604_JUSTAS] | 1.05 ± 0.068 | 1.04 ± 0.17 | 1.08 ± 0.12
18 | SAGGSAGGMIVTTTFLPGNLKVVNVTTTYETTDPSGTTTSTTTTSTTIEYIPPVPVDINNPLLISAGGSAGG [r6_920_JUSTAS] | 1.41 ± 0.071 | 1.24 ± 0.038 | 1.41 ± 0.14

Row | Sequence | folding stability dG unfold [1] [kcal/mol] | folding stability dG unfold [2] [kcal/mol] | folding stability dG unfold [3] [kcal/mol]
19 | SAGGSAGGMIYADNPEEFKKVVKELLKKHPKNKPVFAVLTGSNSKYVIYLSGDKLEKVLAFPVPSAGGSAGG [r6_288_TrMRF] | 0.961 ± 0.028 | 1.62 ± 0.051 | 1.38 ± 0.052
20 | SAGGSAGGMKATFHPGPGRFPLGDKEYEVDLIYVTVTLPNGVPRVFVLTPDEVEELLPDLELEGSAGGSAGG [r6_561_TrMRF] | 0.338 ± 0.07 | 1.04 ± 0.071 | 0.794 ± 0.098
21 | SAGGSAGGMKEGETRTITFWANVKPGDLEKIANHMMKFGWPIKKVDIKRHPENGMVRVSITIRKSAGGSAGG [r6_514_TrROS] | 2.21 ± 0.025 | 2.56 ± 0.045 | 2.43 ± 0.052
22 | SAGGSAGGMKEVIEAALKDGSKEFYAPGFSPDKVYDVKITVYPGEGKVEIEVEGKRFTVSPEDLSAGGSAGG [r6_749_TrMRF] | 1.48 ± 0.14 | 0.765 ± 0.18 | 1.11 ± 0.23
23 | SAGGSAGGMKITKIESVEPNPENGMVSLEMKIENGASILIHYNPDNGKVTIMVFKPNEIEPIELSAGGSAGG [r6_796_TrROS] | 1.26 ± 0.092 | 1.91 ± 0.072 | 1.76 ± 0.089
24 | SAGGSAGGMKITVEEDPATNRLTITIEVDGHTVTIVYDKDNPNKITVTVSPNMTKDEILKALKSSAGGSAGG [r6_195_TrROS_Hall] | 1.67 ± 0.052 | 2.43 ± 0.034 | 2.17 ± 0.095
25 | SAGGSAGGMKKYKMTITFKTPDGTPVKEKTIYFNSEEEAKKAAEEIKKKELEPDTPVTVSKEPDSAGGSAGG [r6_286_JUSTAS] | 0.425 ± 0.05 | 1.13 ± 0.071 | 0.898 ± 0.069
26 | SAGGSAGGMKLLKVVVERKDGSKRELEIPEELLVELGRPPTPEEIAKLLGIKPEDIVRVEIEDVSAGGSAGG [r6_166_TrMRF] | 3.65 ± 0.15 | 4.87 ± 0.21 | 4.74 ± 0.2
27 | SAGGSAGGMKTVEIEVTVKTPDGKEVKIKKARIEYDKETKTFHLYFENEETGEWYEVDEIKLKDSAGGSAGG [r6_329_TrROS_Hall] | 1.96 ± 0.085 | 2.69 ± 0.18 | 2.71 ± 0.2
28 | SAGGSAGGMKVVVKFTVRPRDPDTDEAVPAELVLEFDSLEEALAAAEELAALPEGTEIEIEVLTSAGGSAGG [r6_999_TrMRF] | 2.2 ± 0.058 | 1.76 ± 0.031 | 1.96 ± 0.088
29 | SAGGSAGGMKYTTTTETSVVEVRTDPKTGTTTRLERVTVTTVDSSGNVLSTTETLEERVDPVPASAGGSAGG [r6_181_JUSTAS] | 2.1 ± 0.059 | 2.163 ± 0.0081 | 2.15 ± 0.039
30 | SAGGSAGGMKYVVTVELPETGTTRTLTIPDNYTGEENVKKAVEEEAKKLGYSISKIEITKINDKSAGGSAGG [r6_718_JUSTAS] | 0.367 ± 0.086 | 0.654 ± 0.14 | 0.536 ± 0.12
31 | SAGGSAGGMLEIEFEKPLPNGETLKIKVFFDKDKPEALVEIENPSTNEKKFYNFTSIDEVIEKESAGGSAGG [r6_464_TrMRF] | 1.03 ± 0.048 | 1.7 ± 0.2 | 1.49 ± 0.24
32 | SAGGSAGGMNIQILKVDPDNGTITLAIPVDNWIVAISIKIRPDPNNPGMFKLDIDIHWFPADDISAGGSAGG [r6_372_TrROS] | 3.77 ± 0.14 | 4.44 ± 0.11 | 4.28 ± 0.091
33 | SAGGSAGGMNPTVTPVEVDVGDKPLTVFLFGDGTALVLFPDGGLAGAPVGTPDDRPVNLAIIGPSAGGSAGG [r6_239_TrMRF] | 0.887 ± 0.037 | 0.955 ± 0.053 | 0.927 ± 0.073
34 | SAGGSAGGMPLLALSYPVLKDGKLYRVLFLYSPDGTFLGPFYVSADLTEDIPPDTVVLVHPDALSAGGSAGG [r6_33_TrMRF] | 3.24 ± 0.09 | 3.523 ± 0.03 | 3.55 ± 0.1
35 | SAGGSAGGMPPVSLPETPVTITDPATGKPRLVTVLAAAPDGTLTVRFPDGSEVTVAGEPLLELESAGGSAGG [r6_435_JUSTAS] | 0.446 ± 0.042 | 1.05 ± 0.019 | 0.878 ± 0.051
36 | SAGGSAGGMPVEIEILTPDNLLPTFTIPDPEEAEKIKSVEVFGDRFIKITLGDKEIVIEVYPDNSAGGSAGG [r6_206_TrMRF] | 1.48 ± 0.061 | 0.559 ± 0.063 | 1.01 ± 0.12
